{"source": "patent US20100297136A1", "about": "(NOTTINGHAM TRENT UNIVERSITY, published 2010)", "binders": {"B1": {"name": "T21:765 peptide (peptide)", "peptide": "YLIHLLQEL", "notes": "Synthetic peptide"}, "B2": {"name": "T21:660 peptide (peptide)", "peptide": "SLERLVNAI", "notes": "Synthetic peptide"}, "B3": {"name": "T21:656 peptide (peptide)", "peptide": "LIIPSLERL", "notes": "Synthetic peptide"}, "B4": {"name": "T21:607 peptide (peptide)", "peptide": "VIAKFQNKL", "notes": "Synthetic peptide"}}}
{"biological_target": "T1, HLA-A2.1 MHC class I on the surface of T2 cells", "T1 construct": "whole, on cells; MHC class I molecule stabilised on T2 cells by added peptide", "assay": "T2 MHC class I stabilisation, flow cytometry with anti HLA-A2.1 mAb, peptide at 10 ug (printed '10 lg'), n = 3", "description": "(§1) 2. CAPABILITY OF T21-DERIVED PEPTIDES TO STABILISE MHC CLASS I ON THE SURFACE OF T2 CELLS. Each of the peptides were then screened in a standard T2 assay to determine their ability to stabilise MHC class I molecules on the surface of T2 cells. In brief, T2 cells were cultured routinely in suspension and when required, resuspended to 4×10⁶ cells/ml. 40 μl of the cell suspension was added to round bottom 96 well plates to give a final cell number of 1.6×10⁵ cells/well. Test peptide was added to the wells in triplicate at concentrations of 100, 10, 1 μg. As a control, T2 cells were also treated with equivalent concentrations of DMSO. Following overnight incubation, cells were harvested into FACS tubes, washed and labelled with anti HLA-A2.1 monoclonal antibody (primary antibody) and FITC conjugated goat IgG F(ab′)₂ anti mouse Ig (secondary antibody). Cells were then analysed using a FACScan spectrofluorometer. (See Table 5 and FIG. 6).\n(§2) TABLE 5 Mean T2 binding ratios calculated for the four T21-derived peptides. Mean fluorescence (T2 binding ratio) was calculated by dividing the fluorescence observed for the test peptide by the fluorescence observed for the control (DMSO)."}
{"binder": "B1", "Mean T2 binding ratio": "1.11 ratio to DMSO control"}
{"binder": "B2", "Mean T2 binding ratio": "0.942 ratio to DMSO control"}
{"binder": "B3", "Mean T2 binding ratio": "0.928 ratio to DMSO control"}
{"binder": "B4", "Mean T2 binding ratio": "0.967 ratio to DMSO control"}
{"biological_target": "T1, HLA-A2.1 MHC class I on the surface of …", "assay": "T2 MHC class I stabilisation, flow cytometry with anti HLA-A2.1 mAb, peptide at 1 ug (printed '1 lg'), n = 3", "description": "as §1, §2"}
{"binder": "B1", "Mean T2 binding ratio": "0.955 ratio to DMSO control"}
{"binder": "B2", "Mean T2 binding ratio": "0.918 ratio to DMSO control"}
{"binder": "B3", "Mean T2 binding ratio": "0.955 ratio to DMSO control"}
{"binder": "B4", "Mean T2 binding ratio": "0.951 ratio to DMSO control"}
{"biological_target": "T1, HLA-A2.1 MHC class I on the surface of …", "assay": "T2 MHC class I stabilisation, flow cytometry with anti HLA-A2.1 mAb, peptide at 100 ug (printed '100 lg'), n = 3", "description": "as §1, §2"}
{"binder": "B1", "Mean T2 binding ratio": "2.86 ratio to DMSO control"}
{"binder": "B2", "Mean T2 binding ratio": "0.893 ratio to DMSO control"}
{"binder": "B3", "Mean T2 binding ratio": "0.921 ratio to DMSO control"}
{"binder": "B4", "Mean T2 binding ratio": "0.933 ratio to DMSO control"}
